Patent publication US20050287136A1 (Amgen, published 2005)

Key:
[1] = biological target: T1, CTLA-4-IgG1 fusion protein (OM-CTLA4-IgG1, made in-house) (human); assay: BIAcore, immobilised CTLA-4-Ig fusion, 878.7 RU
T1 construct: covalent dimer through cysteine 120 of CTLA-4; The marks for signal peptide (underline) and CTLA4 domain are lost in the text; also called CTLA-4-Ig fusion protein; human CTLA4-IgG

[2] = biological target: T1, CTLA-4-IgG1 fusion protein …; assay: BIAcore, immobilised CTLA-4-Ig fusion, 457.2 RU
[3] = biological target: T1, CTLA-4-IgG1 fusion protein …; assay: BIAcore, immobilised CTLA-4-Ig fusion, 504.5 RU
[4] = biological target: T2, CTLA-4-Ig(G4) (Repligen, Inc.) (UniProt P16410 37-161, limits assumed); assay: competition ELISA, antibody with CTLA-4-Ig(G4) 0.3 nM on coated B7.2-Ig(G1)
T2 sequence (P16410 37-161 limits assumed): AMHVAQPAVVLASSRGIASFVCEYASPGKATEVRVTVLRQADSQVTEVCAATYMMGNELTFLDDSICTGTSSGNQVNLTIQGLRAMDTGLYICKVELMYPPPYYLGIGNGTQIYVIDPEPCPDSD

[5] = biological target: T2, CTLA-4-Ig(G4) (Repligen, Inc.); assay: competition ELISA, antibody with CTLA-4-Ig(G4) 0.3 nM on coated B7.1-Ig(G1)
[6] = biological target: T1, CTLA-4-IgG1 fusion protein …; assay: BIAcore, immobilised CTLA-4-Ig fusion, 397.8 RU
[7] = biological target: T1, CTLA-4-IgG1 fusion protein …; assay: selectivity ELISA, coated CTLA-4/Ig against CD44/Ig, antibody 1 ug/ml
[8] = biological target: T1, CTLA-4-IgG1 fusion protein …; assay: selectivity ELISA, coated CTLA-4/Ig against B7.2/Ig, antibody 1 ug/ml
[9] = biological target: T1, CTLA-4-IgG1 fusion protein …; assay: selectivity ELISA, coated CTLA-4/Ig against CD28/Ig, antibody 1 ug/ml
[10] = biological target: T2, CTLA-4-Ig(G4) (Repligen, Inc.); assay: competition ELISA (separate experiment), antibody with CTLA-4-Ig(G4) 0.3 nM on coated B7.2-Ig(G1)
[11] = biological target: T1, CTLA-4-IgG1 fusion protein …; assay: selectivity ELISA, coated CTLA-4/Ig against CD28/Ig
[12] = biological target: T2, CTLA-4-Ig(G4) (Repligen, Inc.); assay: competition ELISA (separate experiment), antibody with CTLA-4-Ig(G4) 0.3 nM on coated B7.1-Ig(G1)
[13] = biological target: T1, CTLA-4-IgG1 fusion protein …; assay: selectivity ELISA, coated CTLA-4/Ig against hIgG
[14] = biological target: T1, CTLA-4-IgG1 fusion protein …; assay: selectivity ELISA, coated CTLA-4/Ig against B7.2/Ig

T1 sequence (chain, as listed by the source): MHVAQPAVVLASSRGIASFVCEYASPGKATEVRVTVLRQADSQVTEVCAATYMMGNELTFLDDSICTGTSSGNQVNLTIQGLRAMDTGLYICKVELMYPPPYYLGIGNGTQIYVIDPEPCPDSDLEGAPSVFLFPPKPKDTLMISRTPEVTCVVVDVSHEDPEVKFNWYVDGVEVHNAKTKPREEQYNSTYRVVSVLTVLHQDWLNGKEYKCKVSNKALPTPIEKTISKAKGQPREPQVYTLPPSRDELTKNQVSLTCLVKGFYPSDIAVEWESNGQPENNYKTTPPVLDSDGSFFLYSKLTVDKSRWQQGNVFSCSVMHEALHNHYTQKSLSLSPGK

Row | Binder | Ka [1] [M⁻¹] | Kd [1] [nM] | koff [1] [s⁻¹] | kon [1] [M⁻¹ s⁻¹] | Ka [2] [M⁻¹] | Kd [2] [nM] | koff [2] [s⁻¹] | kon [2] [M⁻¹ s⁻¹] | Ka [3] [M⁻¹] | Kd [3] [nM] | koff [3] [s⁻¹] | kon [3] [M⁻¹ s⁻¹] | IC50 [4] [nM] | IC50 [5] [nM] | further results
1 | 4.10.2 (antibody, human IgG2, V domains shown, chain 1 pos 1: pyroglutamate from Gln (FIG. 9: NH2-Blocked, pQ), written Q, Fully human IgG2 kappa; VH DP-50, VK A27; also called CT4.10.2) VH: QVQLVESGGGVVQPGRSLRLSCVASGFIFSSHGIHWVRQAPGKGLEWVAVIWYDGRNKDYADSVKGRFTISRDNSKNTLYLQMNSLRAEDTAVYYCARVAPLGPLDYWGQGTLVTVSS VL: EFVLTQSPGTLSLSPGERATLSCRASQSISSNFLAWYQQKPGQAPRLLIYRPSSRATGIPDSFSGSGSGTDFTLTISRLEPEDFALYYCQQYGTSPFTFGPGTKVDIK | 3.9e+09 | 0.254 | 0.000253 | 1e+06 | 1.4e+09 | 0.721 | 0.000505 | 700000 | 2.2e+09 | 0.455 | 0.00043 | 940000 | 1.5 | 3.39 | –
2 | 3.1.1 (antibody, human IgG2, V domains shown, chain 1 pos 1: pyroglutamate from Gln (FIG. 9: NH2-Blocked, pQ), written Q, Fully human IgG2 kappa; VH DP-50, VK 012; also called CT3.1.1) VH: QVQLVESGGGVVQPGRSLRLSCAASGFTFSSYGMHWVRQAPGKGLEWVAVIWYDGSNKYYADSVKGRFTISRDNSKNTLYLQMNSLRAEDTAVYYCARGARIITPCMDVWGQGTTVTVSS VL: DIQMTQSPSSLSASVGDRVTITCRASQSINTYLIWYQQKPGKAPNFLISATSILQSGVPSRFRGSGSGTNFTLTINSLHPEDFATYYCQQSYSTPFTFGPGTKVDIK | 1.07e+10 | 0.093 | 9.6e-05 | 1.04e+06 | 4.4e+09 | 0.227 | 0.000165 | 730000 | 5.5e+09 | 0.182 | 0.000172 | 950000 | 0.45 | 0.63 | Ka [6]: 4.4e+09 M⁻¹; Kd [6]: 0.228 nM; koff [6]: 0.000207 s⁻¹; kon [6]: 910000 M⁻¹ s⁻¹; selectivity ratio CTLA4/CD44 [7]: > 500 :1; selectivity ratio CTLA4/B7.2 [8]: > 500 :1; selectivity ratio CTLA4/CD28 [9]: > 500 :1
3 | 11.2.1 (antibody, human IgG2, kappa, V domains shown, also called CT11.2.1) VH: QVQLVESGGGVVQPGRSLRLSCAASGFTFSSYGMHWVRQAPGKGLEWVAVIWYDGSNKYYADSVKGRFTISRDNSKNTLYLQMNSLRAEDTAVYYCARDPRGATLYYYYYGMDVWGQGTTVTVSS VL: DIQMTQSPSSLSASVGDRVTITCRASQSINSYLDWYQQKPGKAPKLLIYAASSLQSGVPSRFSGSGSGTDFTLTISSLQPEDFATYYCQQYYSTPFTFGPGTKVEIKR | – | – | – | – | – | – | – | – | – | – | – | – | – | – | IC50 [10]: 0.56 nM; selectivity ratio CTLA4/CD28 [11]: > 500 :1; IC50 [12]: 0.81 nM; selectivity ratio CTLA4/hIgG [13]: > 500 :1; selectivity ratio CTLA4/B7.2 [14]: > 500 :1
